# B1: TNKS SAM domain (1,018-1,093), wild type [human] / itself (parent)
# chain: ERKEGEVAGLDMNISQFLKSLGLEHLRDIFETEQITLDVLADMGHEELKEIGINAYGHRHKLIKGVERLLGGQQGT
# Variants of: B1
# Assay: SEC-MALS
# Conditions: with itself; 0.5 mM; n = 2
row,Variant,screen value [kDa]
1,chain 1 V39W,10.6
2,chain 1 V39W Y56A,9.3
3,chain 1 Y56A,10.4
